T1: cynomolgus monkey TMPRSS6 expressed on HEK293T cells, CynoTMPRSS6-(His)6 (cynomolgus monkey, UniProt Q8IU80 10-811 (human entry))
T1 chain: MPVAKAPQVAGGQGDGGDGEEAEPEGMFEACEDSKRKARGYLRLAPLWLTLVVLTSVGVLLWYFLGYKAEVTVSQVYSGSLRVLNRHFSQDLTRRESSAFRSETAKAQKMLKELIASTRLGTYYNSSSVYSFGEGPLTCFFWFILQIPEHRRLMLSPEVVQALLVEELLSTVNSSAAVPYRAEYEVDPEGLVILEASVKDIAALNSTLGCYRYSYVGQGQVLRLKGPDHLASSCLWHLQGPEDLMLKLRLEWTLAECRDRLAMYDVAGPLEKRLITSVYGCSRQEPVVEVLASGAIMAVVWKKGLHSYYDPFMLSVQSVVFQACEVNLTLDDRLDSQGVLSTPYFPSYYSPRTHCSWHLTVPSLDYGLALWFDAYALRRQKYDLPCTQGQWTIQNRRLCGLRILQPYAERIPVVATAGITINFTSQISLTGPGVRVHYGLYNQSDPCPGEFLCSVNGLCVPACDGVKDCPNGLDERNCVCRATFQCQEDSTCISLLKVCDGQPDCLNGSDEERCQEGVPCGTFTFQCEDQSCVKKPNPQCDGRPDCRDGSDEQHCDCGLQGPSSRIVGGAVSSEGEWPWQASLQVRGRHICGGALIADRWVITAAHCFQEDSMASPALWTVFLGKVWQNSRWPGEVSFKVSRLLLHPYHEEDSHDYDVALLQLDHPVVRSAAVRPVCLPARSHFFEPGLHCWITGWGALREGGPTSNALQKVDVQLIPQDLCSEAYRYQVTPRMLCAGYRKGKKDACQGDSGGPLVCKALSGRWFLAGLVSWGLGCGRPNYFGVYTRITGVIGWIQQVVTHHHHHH

B1: MWTx-003 anti-TMPRSS6 monoclonal antibody (antibody, mouse IgG2b, kappa, V domains shown)
VH: EVQLQQSGAELVKPGASVKLSCTASGFNIEDYYIHWVKERTEQGLEWIGRIDPEDGETTYAPQFQGKATIIPDTSSNTAYMQLSSLTSEDAAVYYCARSIYLDPMDYWGQGTSVTVSS
VL: DIVMTQSHKFMSTSVGDRVSITCKASQDVTTAVAWYQQKPGQSPKILIYWATTRHTGVPDRFTGSISGTTYILTISSVQAEDLALYYCQQHYSTPYTFGGGTKLEIKR
notes: Mouse monoclonal antibody from hybridoma (ATCC PTA-126761); The recombinant version r4K12B has the same HC and LC; also called r4K12B; recombinant MWTx-003
B2: MWTx-001 anti-TMPRSS6 monoclonal antibody (antibody, mouse IgG2a, kappa, V domains shown)
VH: QVQLQQPGAELAKPGASVKMSCKASGYTFTSYWITWVKQRPGQDLEWIGNIYPGSGSTYYNEKFKSKATLTVDTSSRTAYMQLSSLTSADSAVYYCAPYDSDYAMDYWGQGTSVTVSS
VL: DIKMTQSPSSMYASLGERVTITCKASQDINNYLSWFQQKPGKSPKTLIYRANRLVDGVPSRVSGSGSGQDYSLTISSLEYEDVGIYFCLQYDEFPLTFGAGTKLELKR
notes: Mouse monoclonal antibody from hybridoma (ATCC PTA-126759)
B3: MWTx-002 anti-TMPRSS6 monoclonal antibody (antibody, mouse IgG2b, kappa, V domains shown)
VH: EVQLQQSGAELVKPGASVKLSCTASGFNIKDYYIHWVKERTEQGLEWFGRIDPEDGESEYAPKFQGKATLTADTSSNTAYLQLSSLTSEDTAVYYCTRGDSMMVTYFDYWGQGTTLTVSS
VL: DIVMTQSHKFMSTSVGDRVSITCKASQDVSTAVAWYQQKPGQSPKLLIYWAFTRHTGVPDRFTSTGSGTDYALTISSVQAEDLALYYCQQHYRSPWTFGGGTKLEIKR
notes: Mouse monoclonal antibody from hybridoma (ATCC PTA-126760)
B4: humanized anti-TMPRSS6 antibody variant hzMWTx-002 Var (antibody, human IgG1, kappa, N297A, V domains shown)
VH: EVQLVQSGAEVKKPGASVKVSCKASGFNIKDYYIHWVRQATGQGLEWMGRIDPEDAESEYAPKFQGRVTITADTSTDTAYMELSSLRSEDTAVYYCTRGDSMMVTYFDYWGQGTLVTVSS
VL: DIQMTQSPSSLSASVGDRVTITCKASQDVSTAVAWYQQKPGKAPKLLIYWAFTRHTGVPSRFSGSGSGTDYALTISSLQPEDFATYYCQQHYRSPWTFGGGTKVEIKR
notes: Human IgG1 / kappa
B5: humanized anti-TMPRSS6 antibody variant hzMWTx-003 Var (antibody, human IgG1, kappa, L234A L235A, V domains shown)
VH: QVQLVQSGAEVKKPGASVKVSCKASGFNIEDYYMHWVRQAPGQRLEWMGRIDPEDAETTYSPKFQGRVTIIPDTSANTAYMELSSLRSEDTAVYYCARSIYLDPMDYWGQGTLVTVSS
VL: DIQMTQSPKSLSASVGDRVTITCRASQDVTTALAWYQQKPGQSPKLLIYWATTRHSGVPSRFSGSGSGTDFTLTISSLQPEDFATYYCQQHYSTPYTFGQGTKLEIKR
notes: Human IgG1 / kappa
B6: humanized anti-TMPRSS6 antibody variant hzMWTx-001 Var (antibody, human IgG1, kappa, N297A, V domains shown)
VH: EVQLVQSGAEVKKPGASVKVSCKASGYTFTSYWITWVRQAPGQRLEWIGNIYPGSGSTYYNEKFKSKATITRDTSSRTAYMELSSLRSEDTAVYYCAPYDADYAMDYWGQGTLVTVSS
VL: DIQMTQSPSSLSASVGDRVTITCKASQDISNYLSWFQQKPGKAPKLLIYRANRLVEGVPSRFSGSGSGTDFTLTISSLQPEDFATYFCLQYDEFPLTFGGGTKVEIKR
notes: Human IgG1 / kappa

Molecular target: T1, cynomolgus monkey TMPRSS6 expressed on …
Assay: summary of Example 4 (FACS, cell surface ELISA)
Method: Selected anti-TMPRSS6 antibodies were tested to determine whether any are capable of binding to TMPRSS6 from mouse and/or cynomolgus monkey. HEK293T cells stably expressing human TMPRSS6 (HuTMPRSS6-(His)₆) (generated by LakePharma Inc as described above), HEK293T cells stably expressing mouse TMPRSS6 (MoTMPRSS6-(His)₆) (SEQ ID NO: 98) (generated by LakePharma Inc as described above) and HEK293T cells transiently expressing cynomolgus monkey TMPRSS6 (CynoTMPRSS6-(His)₆) (SEQ ID NO: 99) (generated in house) were collected. HEK293T cells stably expressing human TMPRSS6 were used as a positive control and HEK293T cells were used as a negative control (as described above). Cells were blocked with dPBS+3% BSA before incubation with anti-TMPRSS6 antibodies diluted in dPBS+3% BSA. After incubation, cells were washed with dPBS and followed by another incubation with goat anti-mouse IgG conjugated with AlexaFluor-488 as a 2° antibody (Invitrogen). At last, cells were washed with dPBS to remove unbound antibody, re-suspended with dPBS+1 mM EDTA, and then subjected to FACS analysis using a NOVOCYTE® Flow Cytometer (ACEA Biosciences, Inc., San Diego CA). Bound antibody was determined by excitation at 488 nm and measurement of emission (FITC-A) at 530 nm. Results for these assays are shown in histogram plots in FIGS. 4A-4I.
(§1) HEK293T cells stably expressing mouse TMPRSS6 (generated by LakePharma Inc as described above, FIGS. 4J, 4L, 4N, 4P, 4R, 4T) or cynomolgus monkey (generated in house as described above, FIGS. 4K, 4M, 4O, 4Q, 4S, 4U) were fixed with methanol (100%), and washed with dPBS (Dulbecco's phosphate-buffered saline, Corning Cellgro) before incubation with various concentrations of anti-TMPRSS6 antibodies and their humanized variants diluted in BSA medium (DMEM+1% Pen/Strep+10 mM HEPES+1 mg/ml BSA (Sigma-Aldrich)). Purified mouse IgG (FIGS. 4J-4O) or Human IgG1 (FIGS. 4P-4U) was used as a control.

Binding result, binds:
B1, B2, B3

Molecular target: T1, cynomolgus monkey TMPRSS6 expressed on …
Assay: summary of Example 4 (cell surface ELISA)
Method: as §1, with “control. After incubation, cells were washed with BSA medium and then incubated with goat anti-mouse (Invitrogen, FIGS. 4J-4O) or anti-human (Millipore, FIGS. 4P-4U) IgG conjugated with HRP as a 2° antibody. Finally, cells were washed with dPBS to remove unbound antibody and color developed with ELISA liquid substrate (Sigma-Aldrich), followed by stopping the reaction with addition of the same volume of […] 1M H₂SO₄. Bound antibody was measured by absorbance at OD₄₅₀ₙₘ.” for “control.”

Binding result, binds:
B4, B5, B6

Reference: patent publication US20250136718A1 (MABWELL THERAPEUTICS, published 2025)
